Assay results taken from patent US20120283184A1 (published 2012).
Residue numbers refer to the chain shown, from its start.

B1: 1′DelE2 PR4 (designed binder)
chain: EVVAATPTSLLISWRHPHFPTRYYRITYGETGGNSPVQEFTVPLQPPTATISGLKPGVDYTITVYAVTVGQNDHELLTPISINYRT
B2: 2′Del C8 PR4 (designed binder)
chain: B1 chain with V69T, G70A, Q71H, D73G
B3: 2′Del B2 PR4 (designed binder)
chain: B1 chain with V69T, Q71W, D73G, H74N, L77F
B4: 2′Del B4 PR4 (designed binder)
chain: B1 chain with V69S, Q71H, D73G, L76V, L77M
B5: 2′Del C6 PR4 (designed binder)
chain: B1 chain with V69M, Q71F, N72M, D73A, L77M, T78V
B6: 1′DelA2 PR4 (designed binder)
chain: B1 chain with G70A, D73G, E75Q, L77F
B7: 2′Del B3 PR4 (designed binder)
chain: B1 chain with V69D, G70A, Q71P, D73G, H74R, L77M, T78V
B8: 1′DelA1 PR4 (designed binder)
chain: B1 chain with G70A
B9: 1′DelE7 PR4 (designed binder)
chain: B1 chain with G70A, D73G, L77F
B10: 2′Del B5 PR4 (designed binder)
chain: B1 chain with V69A, Q71R, N72H, L77I, T78I
B11: 1′DelD2 PR4 (designed binder)
chain: B1 chain with G70A, Q71K
B12: 1′DelD1 PR4 (designed binder)
chain: B1 chain with G70T
B13: 1′DelH10 PR4 (designed binder)
chain: B1 chain with V69F, G70A
B14: 2′Del C1 PR4 (designed binder)
chain: B1 chain with V69A, Q71L, N72D, D73E, T78I
B15: 1′DelH5 PR4 (designed binder)
chain: B1 chain with G70A, H74R, L77F
B16: 1′DelF3 PR4 (designed binder)
chain: B1 chain with V69M, G70A, E75K, L77F
B17: 1′DelH12 PR4 (designed binder)
chain: B1 chain with G70A, D73E, H74R, L77F
B18: 2′Del C5 PR4 (designed binder)
chain: B1 chain with V69P, Q71H, L77M, T78V
B19: 2′Del A11 PR4 (designed binder)
chain: B1 chain with V69E, G70D, Q71I, N72R, D73V, H74L, E75W, L77N, P79T
B20: 2′Del A2 PR4 (designed binder)
chain: B1 chain with V69G, Q71R, D73G, E75T
B21: 1′Del G10 PR4 (designed binder)
chain: B1 chain with V69M, G70A, D73G, E75K, L77M
B22: 2′Del C11 PR4 (designed binder)
chain: B1 chain with V69A, Q71L, D73E, T78I
B23: 1′DelE6 PR4 (designed binder)
chain: B1 chain with V69L, G70A, H74R
B24: 1′DelD5 PR4 (designed binder)
chain: B1 chain with D73H, L77F

Biological target: T1, human vascular endothelial growth factor receptor-2 Fc chimera (KDR-Fc) (human, UniProt P35968 20-764)
T1 construct: range 1-764; also called human VEGFR-2; not shown: human IgG1 Fc
Test: radioactive equilibrium binding, 1 nM KDR-Fc, % of input
Protocol: To prepare ³⁵S-labeled binding proteins for analysis, mRNA was prepared as described above for RNA-protein fusion production but the linker ligation step was omitted. The mRNA was expressed using rabbit reticulocyte lysate translation kit (Ambion) in the presence of ³⁵S-labeled Met at 30° C. for 1 hour. Expressed protein was purified on M2-agarose Flag beads (Sigma) as described above. This procedure produced the encoded protein without the nucleic acid tail. In a direct binding assay, VEGF-R2-Fc fusions in concentrations ranging from 0 to 200 nM were added to a constant concentration of the purified protein (0.2 or 0.5 nM) and incubated at 30° C. for 1 hour in buffer B. The receptor-binder complexes were captured using Protein A magnetic beads for another 10 minutes at room temperature using a Kingfisher™ The beads were washed with six reaction volumes of buffer B. The protein was eluted from the beads with 100 μL of 0.1 M KOH. 50 μL of the reaction mixture and elution were dried onto a LumaPlate-96 (Packard) and the amount of ³⁵S on the plate was measured using a TopCount NXT instrument (Packard). The amount of fibronectin-based scaffold protein bound to the target was estimated as a percent of radioactivity eluted from Protein A magnetic beads compare to radioactivity in the reaction mixture. Nonspecific binding of fibronectin-based scaffold proteins to the beads was determined by measuring binding in the absence of KDR-Fc and represented less than 1-2% of the input. Specific binding was obtained through subtraction of nonspecific binding from total binding. Data was analyzed using the GraphPad Prizm software (GraphPad Software, Inc, San Diego, Calif.), fitted using a one site, non-linear binding equation.

T1 sequence (P35968 20-764 limits assumed, change not shown, form in doubt): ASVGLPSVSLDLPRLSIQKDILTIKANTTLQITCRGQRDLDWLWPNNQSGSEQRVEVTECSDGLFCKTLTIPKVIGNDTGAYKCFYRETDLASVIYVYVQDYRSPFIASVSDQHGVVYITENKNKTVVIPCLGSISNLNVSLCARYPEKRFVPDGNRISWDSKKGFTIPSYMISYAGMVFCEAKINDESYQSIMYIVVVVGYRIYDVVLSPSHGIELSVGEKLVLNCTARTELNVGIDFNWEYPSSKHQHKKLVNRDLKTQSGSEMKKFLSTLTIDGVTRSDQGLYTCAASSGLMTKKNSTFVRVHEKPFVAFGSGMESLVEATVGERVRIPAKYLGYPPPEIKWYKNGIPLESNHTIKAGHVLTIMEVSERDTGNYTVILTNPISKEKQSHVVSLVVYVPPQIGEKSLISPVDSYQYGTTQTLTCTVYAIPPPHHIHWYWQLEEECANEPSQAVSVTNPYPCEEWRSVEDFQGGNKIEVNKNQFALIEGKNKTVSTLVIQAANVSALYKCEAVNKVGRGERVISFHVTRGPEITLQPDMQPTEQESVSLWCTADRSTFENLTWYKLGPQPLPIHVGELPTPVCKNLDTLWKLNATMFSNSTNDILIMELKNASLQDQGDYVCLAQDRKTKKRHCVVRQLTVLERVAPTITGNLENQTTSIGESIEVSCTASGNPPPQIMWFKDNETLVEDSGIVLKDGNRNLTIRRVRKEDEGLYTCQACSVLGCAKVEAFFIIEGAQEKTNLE

Binder | Binding to 1 nM KDR, % [%]
B1 | 16
B2 | 15
B3 | 29
B4 | 31
B5 | 34
B6 | 23
B7 | 17
B8 | 14
B9 | 22
B10 | 33
B11 | 17
B12 | 16
B13 | 17
B14 | 32
B15 | 17
B16 | 16
B17 | 18
B18 | 26
B19 | 16
B20 | 17
B21 | 36
B22 | 34
B23 | 24
B24 | 17
